Patent publication US20160046725A1 (PIERRE FABRE MEDICAMENT, published 2016)

Key:
[1] = target: T1, recombinant human Axl-Fc protein (R and D Systems, cat N° 154-AL) (human, UniProt P30530 26-451); experiment: competition ELISA, rhAxl-Fc on coated rhGas6 (competitor: Gas6)
T1 construct: Bought construct; An anti-Histidine coating control hints at a His tag, not described; also called rhAxl-Fc; rh Axl-Fc; not shown: human Fc portion of the bought fusion
T1 sequence: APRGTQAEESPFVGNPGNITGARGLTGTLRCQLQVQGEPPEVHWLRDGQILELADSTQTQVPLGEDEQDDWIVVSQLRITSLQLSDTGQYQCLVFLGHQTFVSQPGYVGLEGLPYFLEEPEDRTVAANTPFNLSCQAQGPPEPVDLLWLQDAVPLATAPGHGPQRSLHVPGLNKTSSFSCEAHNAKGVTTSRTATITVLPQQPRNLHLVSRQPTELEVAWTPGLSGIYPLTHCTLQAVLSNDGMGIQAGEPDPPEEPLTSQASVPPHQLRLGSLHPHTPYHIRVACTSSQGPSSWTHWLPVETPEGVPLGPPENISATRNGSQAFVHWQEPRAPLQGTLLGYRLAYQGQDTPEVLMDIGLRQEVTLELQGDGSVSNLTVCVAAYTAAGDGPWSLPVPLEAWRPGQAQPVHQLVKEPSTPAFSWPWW
Description: To further characterize the anti-Axl Mabs, Gas6 competition assays were performed. In this assay, the free rhAxl-Fc protein and the anti-Axl antibody are incubated to form antigen-antibody complex and then the complexes are loaded on Gas6-coated surface in the assay plate. The unbound antibody-antigen complexes are washed off before adding enzyme-linked secondary antibody against the human Fc portion of the rhAxl-Fc protein. The substrate is then added and the antigen concentration can then be determined by the signal strength elicited by the enzyme-substrate reaction.
Briefly reaction mixture comprising the rhAxl-Fc protein in presence or not of the Mabs to be tested, are prepared on a separate saturated (0.5% gelatin in PBS 1×) plate. Serial 1: 2 dilutions (starting from 80 μg/ml on 12 columns) of murine Axl antibodies (110D7, 1003A2 and 1024G11) are performed. Then 0.5 μg/ml of the rhAxl-Fc protein is added (R and D Systems, ref 154AL/CF), except to the negative control line that contains only ELISA diluant (0.1% gelatin, 0.05% Tween 20 in PBS 1×). After homogenisation, the competition samples are loaded on Gas6-coated plates with a 6 μg/ml rhGas6 solution in PBS (R and D Systems cat N° 885-GS-CS/CF). After incubation and several washes, bound rhAxl-Fc proteins are detected using a goat anti-Human IgG-HRP (Jackson, ref 109-035-098). Once bound, the TMB substrate is added to the plates. The reaction is stopped by addition of H₂SO₄ acid solution and the obtained optical densities read at 450 nm using a microplate reader instrument.

[2] = target: T2, human Axl receptor on human tumor cells (human, UniProt P30530 26-894); experiment: cell-based or functional assay
T2 sequence: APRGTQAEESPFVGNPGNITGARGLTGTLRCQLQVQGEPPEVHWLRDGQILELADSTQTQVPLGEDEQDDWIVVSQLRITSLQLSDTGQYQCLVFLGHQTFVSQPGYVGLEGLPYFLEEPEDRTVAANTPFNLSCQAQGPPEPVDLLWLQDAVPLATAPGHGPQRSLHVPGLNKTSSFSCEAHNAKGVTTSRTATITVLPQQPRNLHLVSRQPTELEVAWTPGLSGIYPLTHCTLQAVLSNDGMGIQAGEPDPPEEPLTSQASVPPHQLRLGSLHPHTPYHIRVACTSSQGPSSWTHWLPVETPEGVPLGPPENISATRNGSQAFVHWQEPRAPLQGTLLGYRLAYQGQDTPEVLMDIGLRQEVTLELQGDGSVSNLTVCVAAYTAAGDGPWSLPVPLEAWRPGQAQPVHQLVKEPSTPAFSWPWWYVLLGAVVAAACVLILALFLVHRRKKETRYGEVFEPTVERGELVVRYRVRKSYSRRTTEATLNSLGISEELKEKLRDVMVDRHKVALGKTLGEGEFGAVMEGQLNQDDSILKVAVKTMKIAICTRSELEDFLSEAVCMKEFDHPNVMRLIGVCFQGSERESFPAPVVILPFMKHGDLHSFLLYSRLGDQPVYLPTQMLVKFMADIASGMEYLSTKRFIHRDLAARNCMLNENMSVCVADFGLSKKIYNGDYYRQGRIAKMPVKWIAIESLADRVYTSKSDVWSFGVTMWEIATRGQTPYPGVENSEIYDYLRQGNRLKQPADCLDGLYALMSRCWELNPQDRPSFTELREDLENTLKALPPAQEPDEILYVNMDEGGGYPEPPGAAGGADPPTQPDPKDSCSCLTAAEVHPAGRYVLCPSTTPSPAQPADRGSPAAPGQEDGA

Binder	antibody concentration above which competition with Gas6 binding occurs [1] [nM]	Axl down-regulation at 4 h (western blot, SN12C) [2] [%]	Axl down-regulation at 24 h (western blot, SN12C) [2] [%]	maximal cytotoxic effect on SN12C cells (Mab-Zap assay) [2] [%]
110D7 anti-Axl monoclonal antibody (antibody, V domains shown, Murine monoclonal antibody purified from a hybridoma; a mIgG1 isotype control (9G4) is used beside it; also called m110D7; monoclonal antibody 110D7 derived from the hybridoma I-3959) VH: EVKLVESGGGLVQPGGSLKLSCATSGFTFSDYYMYWVRQTPEKRLEWVAYISNGGGSTYYPDTVKGRFTMSRDNAKNTLYLQMSRLKSEDTAMYYCARLSFYAMDYWGQGTSVTVSS VL: DIVMTQSHKFMSTSVGDRVSITCKASQDVTTAVAWYQQKPGQSPKLLIYWASTRHTGVPDRFTGSGSGTDYTLTISSVQAEDLALYYCQQHYRIPFTFGSGTKLEIK	> 16.7	50	84	~49
1003A2 anti-Axl monoclonal antibody (antibody, V domains shown, Murine monoclonal antibody purified from a hybridoma; a mIgG1 isotype control (9G4) is used beside it; also called monoclonal antibody 1003A2 derived from the hybridoma I-4499) VH: EVKLVESGGGLVQPGGSLKLSCAASGFTFNSYSMSWVRQTPEKRLEWVAYISNGGGRTYYPDTIKGRFTLSRDNDRNTLYLQMSSLKSEDTAMYYCARGTTESYYALDYWGQGTSVTVSS VL: DIVMTQSHKFMSTSLGDRISITCKASQDVITAVAWYQQKPGQSPKLLIYWASTRHTGVPDRFTGSGSGTDYNLTISSVQAEDLALYYCQQHFSTPLTFGAGTKLELK	> 16.7	66	89	~37
1024G11 anti-Axl monoclonal antibody (antibody, V domains shown, Murine monoclonal antibody purified from a hybridoma; a mIgG1 isotype control (9G4) is used beside it; also called monoclonal antibody 1024G11 derived from the hybridoma I-4501) VH: EVKLVESGGGLVQPGGSLNLSCAASGFTFSSYSMSWVRQTPEKRLEWVAFISNGGGRTYYPDTVKGRFTFSRDNARNTLYLQMSSLNSEDTAMYFCARGTTESYYAMDYWGQGTSVTVSS VL: DIVMTQSHKFMSTSVGDRVSITCKASQDVITAVAWYQQKPGQSPKLLIYWASTRHTGVPDRFTGSGSGTDYTLTISSVQAEDLALYFCQQHLSTPLTFGAGTKLELK	> 16.7	68	85	~40
